Target: SeMet-substituted C. elegans ZYG-1 cryptic polo-box (CPB) domain (residues 338-564) (C. elegans)
Assay: SEC-MALS

- stoichiometry N: 2
Substance: SeMet-substituted C. elegans ZYG-1 cryptic polo-box (CPB) domain (residues 338-564) (domain or fragment)

Reference: paper PMC4188077
